Results reported in patent US7691567B2, “Methods and compositions relating to fortilin, an anti-apoptotic molecule, and modulators of fortilin” (Board of Regents, the University of Texas System, priority 2000, dated 2010).
“Also recorded” adds a separate entry of the source. Read-outs that look alike come from different tables or passages of the source.

Tests used:
MCL1 = MCL1 (Homo sapiens, UniProt Q07820); experiment: In vivo coimmunoprecipitation assay in U2OS stable transfectants of Fortilin and mutants; conditions: anti-HA immunoprecipitation
Sequence of MCL1 (Q07820 whole entry): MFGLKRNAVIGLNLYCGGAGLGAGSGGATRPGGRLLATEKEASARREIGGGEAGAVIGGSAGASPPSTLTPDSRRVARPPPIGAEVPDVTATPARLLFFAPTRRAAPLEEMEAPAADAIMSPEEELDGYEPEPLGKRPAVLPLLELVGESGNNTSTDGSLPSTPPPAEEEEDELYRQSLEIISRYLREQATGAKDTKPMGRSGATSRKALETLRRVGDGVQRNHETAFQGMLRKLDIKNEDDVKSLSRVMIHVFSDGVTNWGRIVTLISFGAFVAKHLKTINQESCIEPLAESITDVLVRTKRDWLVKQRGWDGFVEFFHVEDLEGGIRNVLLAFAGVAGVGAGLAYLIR
Text: In vivo coimmunoprecipitation assay. COS-7 cells (2.5×10^6) were cotransfected with pcDNA3-Fortilin-HA or pcDNA3 and with FLAG-MCL1/pFLAG-CMV or pFLAG-CMV vectors using FuGENE6 (Roche Molecular Biochemicals), according to the manufacturer's instructions. […] Formed complexes were precipitated by sheep anti-rat antibodies conjugated to Dynabead™ (Dynal USA); washed with Buffers A and B; eluted into SDS gel loading buffer; and subjected to SDS-PAGE, Western blot transfer and immuodetection with anti-HA (16B12; Covance, Richmond, Calif.) and anti-FLAG (M2; Sigma) antibodies. […] Cells were harvested by scraping, washed with chilled PBS, suspended in Buffer C (Buffer A supplemented with 0.02% NP-40), and lysed by a nitrogen cavitation method (PARR Instrument Co). […] Formed complexes were precipitated by sheep anti-rat antibodies conjugated to Dynabeads™ (Dynal USA); washed with Buffers C; eluted into SDS gel loading buffer; and subjected to SDS-PAGE, Western blot transfer and immuodetection with anti-HA (16B12; Covance, Richmond, Calif.) and anti-MCL1 (Santa Cruz Biotechnology) antibodies.

[1] = system: p53 transactivation of Bax gene; experiment: p53 transactivation of Bax gene, p-Bax-RE-Luc luciferase reporter in H1299 cells; type: cell-based
Experimental: The ability of Fortilin to interfere with transactivation of the Bax gene by p53 was investigated. Non-small cell lung cancer cell line H1299 cells were transfected with p53-pcDNA3, LacZ-pFLAG, p-Bax-RE-Luc (a plasmid encoding the Luciferase gene under the control of the Bax responsive element) and pFLAG vector encoding Bcl-2, MCL1, Fortilin or truncated Fortilin as indicated in FIG. 6. Twenty-four hours after the transfection, luciferase activity was measured and normalized to the β-galactosidase activity, the latter representing transfection efficiency.
Next, studies were conducted to determine whether the inhibition was dosage dependent. H1299 cells were transfected with p53-pcDNA3, LacZ-pFLAG, p-Bax-RE-Luc and various amount of Fortilin-pFLAG. The total amount of DNA added was adjusted by the addition of empty pFLAG vector. Twenty-four hours after the transfection, luciferase activity was measured and normalized to the β-galactosidase activity.

PCNA = PCNA (Homo sapiens, UniProt P12004); experiment: In vitro pull-down assay of Fortilin-HA with PCNA; type: binding; conditions: in vitro translated proteins, anti-HA pull-down
Sequence of PCNA (P12004 whole entry, species assumed): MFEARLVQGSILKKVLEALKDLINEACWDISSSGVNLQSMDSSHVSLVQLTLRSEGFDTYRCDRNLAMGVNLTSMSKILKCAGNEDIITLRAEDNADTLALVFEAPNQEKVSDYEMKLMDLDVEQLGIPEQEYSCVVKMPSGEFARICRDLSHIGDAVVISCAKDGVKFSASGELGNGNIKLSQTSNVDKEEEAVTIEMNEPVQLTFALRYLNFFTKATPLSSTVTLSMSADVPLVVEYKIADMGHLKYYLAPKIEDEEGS

p53 = p53 (Homo sapiens, UniProt P04637); experiment: Coimmunoprecipitation of fortilin and p53 from U2OS cell lysates; type: binding; design: endogenous in cells; host or cells: U2OS
Sequence of p53 (P04637 whole entry, species assumed): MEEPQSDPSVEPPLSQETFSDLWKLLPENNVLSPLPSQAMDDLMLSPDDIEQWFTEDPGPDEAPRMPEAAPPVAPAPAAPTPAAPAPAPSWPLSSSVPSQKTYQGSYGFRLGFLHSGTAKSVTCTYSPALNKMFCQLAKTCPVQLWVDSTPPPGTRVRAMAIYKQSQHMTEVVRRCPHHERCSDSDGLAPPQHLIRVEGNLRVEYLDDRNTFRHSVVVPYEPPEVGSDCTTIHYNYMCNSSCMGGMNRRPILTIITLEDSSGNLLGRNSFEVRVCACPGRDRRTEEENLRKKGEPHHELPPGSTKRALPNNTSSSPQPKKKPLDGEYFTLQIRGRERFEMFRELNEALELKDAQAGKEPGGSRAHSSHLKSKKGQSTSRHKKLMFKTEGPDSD
Experimental: As in example 2, studies were initiated to determine whether p53 and Fortilin specifically interact in U2OS cells. Six million U2OS cells stably expressing either HA-fortilin or HA-only were suspended in lysis-binding-wash buffer (50 mM HEPES, pH7.5, 70 mM KCl, 0.5 mM ATP, 5 mM MgSO4, 1 mM DTT, 0.1% NP40, 2 mg/mL BSA, Aprotinin, PMSF, MG132 and protease inhibitor cocktail). Cells were then mechanically disrupted by nitrogen excavitation method. Cleared total cell lysates were incubated with […] anti-HA antibody (3F10, Roche), followed by the incubation with anti-mouse IgG conjugated to magnetic beads (Dynal USA) and extensive wash with lysis-binding-wash buffer.
Further experiments were conducted to determine in vivo immunoprecipitation of fortilin by p53. Twenty million U2OS cells were suspended in lysis-binding buffer (50 mM HEPES, pH7.5, 70 mM KCl, 0.5 mM ATP, 5 mM MgSO4, 1 mM DTT, 0.001% NP40, 2 mg/mL BSA, Aprotinin, PMSF, MG132 and protease inhibitor cocktail). Cells were then mechanically disrupted by nitrogen excavitation method. Cleared total cell lysates were divided equally into two eppendorf tubes. To the first tube, anti-p53 antibody (DO-1, […]) was added, while […] control monoclonal antibody was added to the second tube. After incubation, formed complexes were precipitated by goat anti-mouse IgG conjugated to magnetic beads (Dynal USA), followed by extensive wash. […]

U2OS cells [2] = experiment: Bax-mediated apoptosis in transfected U2OS cells (apoptotic index); type: cell-based; conditions: U2OS cells cotransfected with Bax-pcDNA3, thirty hours after transfection
Experimental: The amount of LacZ-pFLAG was 1/10 to 1/20 (w/w) of total amounts of DNA added. Thirty hours after the transfection, cells were stained with X-gal. Blue cells represented cells expressing Bax, β-galactosidase and indicated proteins in question. At least 300 blue cells were counted and evaluated for plasma membrane morphology. Rounded cells were counted as apoptotic. Apoptotic index was calculated as the number of blue apoptotic cells divided by the number of total blue cells counted, expressed in percentage. Without the expression of Bax, there was a modest amount of background cell death noted (Lane 6). On the other hand, the presence of Bax caused 2 holds increase in the number of apoptotic cells (Lane 5). […] Taken together, the ability of Fortilin to inhibit Bax mediated apoptosis is mediated by its interaction with MCL1.

U2OS cells [3] = conditions: for cytotoxicity index relative to control transfectants: U2OS stable transfectants of HA-tagged Fortilin or deletion mutants, 5 μg/mL etoposide 48 hours
Text: Generation and characterization of U2OS cells stably expressing Fortilin. U2OS cells were transfected with empty pcDNA6, a mammalian expression vector containing a blasticidine resistance gene (Invitrogen, Carlsbad, Calif.), or with pcDNA6 vector encoding wild-type Fortilin, by using FuGENE6 (Roche Molecular Biochemicals) according to the manufacturer's instructions. Transfected cells were selected for approximately 3 weeks and characterized by Western blot analysis. For the cytotoxicity assay, U2OS cells stably expressing wild-type Fortilin (U2OS.F) and U2OS cells stably harboring empty pcDNA6 (U2OS.E) were seeded in a 96 well plate in quadruplicate. For the investigation of dose response, cells were challenged with various concentrations of etoposide (0-20 μg/mL) for 48 hours. For the time course study, cells were challenged with 5 μg/mL of etoposide and harvested after various incubation periods (0-96 hours). In both cases, the cell media were assayed for the lactate dehydrogenase (LDH) activity released from the cytosol of damaged cells, using a cytotoxicity detection kit (Roche Molecular Biochemicals) according to the manufacturer's instructions. The cytotoxicity index was calculated as follows: (LDH activity in the media−background LDH activity)÷(LDH activity in the medium of cells lysed by 1% Triton X-100−background LDH activity)×100.
Cell death assay. U2OS cells stably expressing Fortilin or its mutants were seeded in 96-well plates in triplicate. Cells were then challenged with 5 μg/mL of etoposide (Sigma) for 48 hours. Then the cell media were assayed for the lactate dehydrogenase (LDH) activity released from the cytosol of damaged cells, using a Cytotoxicity Detection Kit (Roche Molecular Biochemicals), according to the manufacturer's instructions. The cytotoxicity index was calculated as follows: (LDH activity in the media−background LDH activity)/(LDH activity in the medium of the cells lysed by 1% Triton X-100−background LDH activity)×100.
Statistical analysis. For analysis of the statistical significance of differences in cytotoxicity indices among cells stably transfected with Fortilin, its mutants or control plasmids, Student's t-test was performed using a commercial software (Minitab Inc., State College, Pa.). In all cases, a P-value less than 0.05 was considered to be statistically significant.

Fortilin: 172 amino acid anti-apoptotic polypeptide (SEQ ID NO:2), overexpressed from expression constructs or used as recombinant/in vitro translated protein
co-immunoprecipitation of MCL1 in vivo (MCL1): co-immunoprecipitated MCL1
inhibition of p53 transactivation of Bax gene (luciferase normalized to β-galactosidase) ([1]; twenty-four hours after transfection): inhibited p53 transactivation of the Bax gene
inhibitory effect on p53 transactivation of Bax gene versus amount of Fortilin transfected ([1]; various amount of Fortilin-pFLAG): stronger inhibitory effects on p53 transactivation of the Bax gene; also recorded: larger inhibitory effect on p53 transactivation of Bax gene
co-immunoprecipitation of PCNA with Fortilin in vitro (PCNA): not PCNA
co-precipitation of fortilin and p53 in vivo (p53): The presence of immunoprecipitated p53 was necessary and sufficient to co-precipitate fortilin
prevention of Bax mediated apoptosis (apoptotic index) (U2OS cells [2]): suppressed Bax induced cell death
cytotoxicity index relative to control transfectants (U2OS cells [3]; listed as wild type Fortilin): significantly lower
cytotoxicity index relative to control transfectants (U2OS cells [3]; listed as wild-type fortilin): significantly lower than the cytotoxicity index of control cells
etoposide-induced cytotoxicity (LDH cytotoxicity index), time course (U2OS cells [3]; U2OS stably expressing Fortilin vs empty vector, 5 μg/mL etoposide, 48, 72, 96 hours): lesser amounts of etoposide-induced cytotoxicity after incubation periods of 48, 72, and 96 hours; also recorded: significantly less cytotoxicity at various time points after the etoposide challenge
etoposide-induced cytotoxicity (LDH cytotoxicity index), dose response (U2OS cells [3]; U2OS stably expressing Fortilin vs empty vector, etoposide 2.5, 5, 10, 20 μg/mL, 48 hours): significantly lesser amounts of etoposide-induced cytotoxicity; also recorded: significantly less cytotoxicity over the wide range of etoposide concentrations
